Test: yeast display, Sf9 membrane polyspecificity reagent, FACS + sequencing; frameworks hold sequencing errors
Method in brief: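 Galactose induction of a Saccharomyces cerevisiae BJ5465 synthetic nanobody display library ran 36–48 hours. The cells were then stained for 1 hour at 4 °C with 10% biotinylated, detergent-solubilized Sf9 membrane reagent, pulled down on streptavidin microbeads and FACS-sorted into low and high (top ~1%) gates on expression and reagent-binding fluorescence. Labels for polyreactivity follow the gate of origin.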

Row | Sequence | polyreactivity (PSR sort gate)
1 | QVQVVESGGGLVQAGGSLRLSCAASGSTFWWYAMGWYRQAPGKERELVAAITSGGSTNYADSVKGRFTISRDNAKNTVYLQMNSLKPEVTAFYYCAKVPRPLVYYIRLGYWGQGTQVTVSS | high polyreactivity
2 | QVQLVESGGGLVQAGGSLRLSCADSGGIFLSYGMGWYRQAPGKERELVAAISRNDGRTYYADSVKGRFTISRDNAKNTVYLQMNSLKPEDTAVYYCAADPEYYYYIYVYVQYDYWGQGTQVTVSS | low polyreactivity
3 | QVQLVESGGGLVQAGGSLRLSCAASGSIFYSYAMGRYRQAPGKERELVAAITKSSGSTYYADSVKGRFTISRDNAKNTVYLQMNSLKPEDTAVYYCAATRYRPVRLYYWGQGTQVTVSS | high polyreactivity
4 | QVQLVESGGGLVQAGGSLRLSCAASGFIFSSNDMGWYRQAPGKERELVAAIDYSGGSTYYADSVKGRFTISRDNAKNTVYLQMNSLKPEDTAVYYCAATVYNPTDYYSPYYYWGQGTQVTGSS | low polyreactivity
5 | QVQLVESGGGLVQAGGSLRLSCAASGSIFKVNVMGWYRQAPGKERELVAAISRSGGNTYYADSVKGRFTISRDNAKNTVYLQMNSLKPEDTAVYYCATGASYLRRYDHPHSDVDYWGQGTQVTVSS | low polyreactivity
6 | QVQLVESGGGLVQAGGSLRLSCAASGRIFYGYTMGWYRQAPGKERELVAAISSSGGSTYYADSVKGRFTISRDNAKNTVYLQMNSLIPEDTAVYYCAAYVPYSPYHVEFNYWGQGTQVTVSS | high polyreactivity
7 | QVQLVESGAALVQAGGSLRISCAASGSTLDTNAMGRYRPAPGKERELVAAITFSGGTTYYADSVKGRFTISRDNAKNTVYLQMNSLKPEDTAVYYCAAEIWLEYVGYDYWGQGTQVTVSS | high polyreactivity
8 | QVQLVESGGGLDQAGGSLRLSCAASGSIFEGNGMGWYRQAPGKERELVAAITFRSGSTYYADSVKGRFTISRDNAKNTVYLQMNSLKPEDTAVYYCAADEYYQVSAYDYWGQGTQVTVSS | low polyreactivity
9 | QVQLVESGGGLVQAGGSLRLSCAASGSTFTYYDMGWYRQAPGKERELVATIDSTTRTYYADSVKGRFTISRDNAKNTVYLQMNSLKPEDTAVYYCAADLTWAYFYYLFYRYDYWGQGTQVTVSS | low polyreactivity
10 | QVQLVESGGGLVQAGGSLRLSCAASGIIFYDYAMGWYRQAPGKERELVAAISRSGGSTYYADSVKGRFTISRDNAKNTVYLQMNSLKPEDTAVYYCNADEVVWGYNYWGQGTQVTVSS | low polyreactivity
11 | QVQLVESGGGLVQAGGSLRLSCAASGRIYVTNAMGWYRQAPGKERELVASISSGGRTHYADSVKGRFTISRDNAKNTVYLQMNSLKPEDTAVYYCAKPPLYYYPDLRGEEFYYWGQGTQVTVSS | low polyreactivity
12 | QVQLVESGGGLVQAGGSLRLSCAASGRTFYWNAMGWSIQAPGKERELVASISWSGGRTYYADSVKGRFTISRDNAKNTVYLQMISLKPEDTAVYYCARRYSGTPSTFYYWGQGTLVTVSS | high polyreactivity
13 | QVQLVESGGGLVQAGGSLRLSCAASGRTFGYNAMGWYRQAPGKERELVASISYRGGSTYYADSVKGRFTISRDNAKNTVYLQMNSLKPEDTAVYYCNKYYVWREYYWGQGTQVTVSS | high polyreactivity
14 | QVQLVESGGGLVQAGGSLRLSCAASGSTTYAMGWYRQAPVKERELVAGITFSGGSTNYADSVKGRFTISRDNAKNTVYLQMNSLKPEDTAVYYCAAKLWHHSYRYDYWGQGTQVTVSS | low polyreactivity
15 | QVQLVESGGGLVQAGGSLRISCAASGSIFGLYAMGWYRQAPGKERELVAAINQSGGSTSYADSVKGRFTISRDNAKNTVYLQMNSLKPEDTAVYYCNRVRLNSEGFDYWGQGTQVTVSS | low polyreactivity
16 | QVQLVESGGGLVQAGGSLRLSCAASGFTFYQYAMGWSRPAPGKERELVAGISRGGRTYYADSVKGRFTISRDNANNTVYLQMNSLKPEDTAVYYCAARYFYYKNVYAYRTYYYWGQGTQVTVSS | high polyreactivity
17 | QVQLVESGGGLVQAGGSLRLSCAASGSTFYRYAMGWYRQAPGNERELVAVLRYTSGRTYYADSVKGRFTISRDNAKYTVYLQMNSLKREDTAVYYCATDPYGTRGTDSRYNYWGQGIQVTVSS | high polyreactivity
18 | QVHLVESGGGLVQAGGSLRLRCAASGIIYVRYAMGWYRHAPGKERELVAAISWSGGSTYYADSVKGRFTISRDNAKNTVYLQMNSLKPEDTAVYYCAADSHRTRGYARYFYWGQGTQVTVSS | high polyreactivity
19 | QVQLVESGGCLVQAGGSLRLSCAASGSIFDGNTMGWYRQAPGKERELVAAITWSGGSTYYADSVKGRFTISRDNAKNTVYLQMNSLKPEDTAVYYCAAEYWDSDPYDYWGQGTQVTVSS | low polyreactivity
20 | QVQLVESGGGLVQAGGSLRLSCAASGITLTKNAMGWYSQAPGKERELVAGITRGSRTNYADSVKGRFTISRDNAKNTVYLQMNSLKPEDTAVYYCAASYWPYRGPVGGSKMYYWGQGTQVTVSS | high polyreactivity
21 | QVQLVESGGGLVQAGGSLRLSCAASGRILPRNAMGWYRQAPGKERELVAGISSDGSPNYADSVKGRFTISRDKAKNTVYLQMNSLNPEDTAVYYCYADYLFYAFDYWGQGTQVTVSS | low polyreactivity
22 | QVQLVESGGGLVQAGGSLRLSCAASGSIFEGNSMGWYRQAPGKERELVAAISRRGGRTYYADSVKGRFTISRDNAKKTVFLQMNSLKPEDTAVYYCNALYFRVGRYQTYSDKFDYWGQGTQVTVSS | high polyreactivity

Row | Sequence | polyreactivity (PSR sort gate)
23 | QVQLVESGGGLVQAGGSLRLSCAASGSTLFTYAMGWYRQAPGKERELVAAITSSGSTYYADSVKGRFTISRDNAKNTVYLQMNSLKPEDTAVYYCAVPGYRYTKYYYWGQGTQVTVSS | low polyreactivity
24 | QVQLVESGGGLVQAGGSLRLSCAASGNTFGNYGMGWYRQAPGKEREFVAAITSRGTSTYYADSVKGRFTISRDNAKNTVYLQMNSLKPEDTAVYYCNARPRYKYPRYDYWVQGTQVTVSS | high polyreactivity
25 | QVQLVESGGGLVQAGGSLRLSCAASGFIFLDYAMGWYRQAPGKERELVAAISSRGARTYYADSVKGRFTISRDNAKNTVYLQMNSLKPEDTAVYYCAARGPLVRYGYWGHGTQVTVSS | high polyreactivity
26 | QVQLVESGGGLVQAGGSLRLSCAASGRTFVSYAMGWYRQAPGKERELVATITGSTGGTYYADSVKGRFTISRDNAKNTVYLQMNSLKPEDTAVYYCNKDYYYNPGNVASGYDYWGQGTQVTVSS | low polyreactivity
27 | QVQLVESGGALVQAGGSLRLSCAASGRIFIVYAMGWSRQAPGKERDLVAAITSSGGGTYYADSVKGRFTISRDNAKNTVYLQMNSLKQEDSAVFYCATRYPYRPGYEYWGQGTQVTVSS | low polyreactivity
28 | PVQLVESGGGLVPGGGSLRLSCAASGRIFNAYARGWYRQAPGKERELVAAISSRGGSTYYADSVKGRCTISRDNAKNSVYLQKNSLPPEDTAVYYCAAGIYTATGYGYWGQGTQVTVSS | high polyreactivity
29 | QVQLVESGGGLVQARGSLRLNSAASGRTFYQYVMGWYRQAPWKERELVAAIRSGGNTYYADSEKGRITISRDNAKYTVYLQMNSLKPEDTAVYYCAVQRGYYRFRLGLYCYDYWGQGTQVTVSS | high polyreactivity
30 | QVQLVESGGGLVQAGGSLRLSCAGSGSSFAWNDMGWYRHAPGIERALVAAISTSDGSTYYADSVKGRFTISRDNAKNTVYLQMNSLNPEDTAVYYCAADVTRVFYGLYTGEYDYWGLGTQVTVSS | low polyreactivity
31 | QVQLVESGGGLVQAGGSLRLSCAASGFTFASNDMGWYIPAPGKERELVSAITKGGGRTYYADSVKGRFTISRDNAKNTVYLQMNSLKPEDTAVYYCAASHDKRRQYFVGQSAFDYWGQGTQVTVSS | low polyreactivity
32 | QVQHVESGGGLVQAVVSLRLSCAATGRIISYNAMGWYRQAPGKEWELVAAISWVGGSTYYADSVKGRFTISRDIAKNTVYLQMNCLKPEDTAVYYCAKGWYRIKRNDYWGQGTQVTVSS | low polyreactivity
33 | QVQLVESGGGLVQAGGSLRLSCAASGSIFSYNAMGWYRQAPGKERELVADITGSGGSTYYADSVKGRFTISRDNAKNTVYLQMNSLKPEDTAVYYCNAVGQYYYLGYDYWGQGTQVTVSS | low polyreactivity
34 | QVQLVESGGGLVQAGGSLRLTCAASGRIFPYMGWYRQAPGKERELVAAISSRGGNTYYADSVKGRFTISRDNAKNTVYLQMNSLKPEDTAVYYCNKVKYTWYDWGQGTQVTVSS | high polyreactivity
35 | QVQLVESGGGLVQAGGSLRLICAASGRIFYFYAMGWYRQAPGKERELVAAISTSGGSTYYADSVKGRFTISRDNAKNTVYLQMNSLKPEDTAVYYCAARFRYYGSEYDYWGQGTQVTVSS | low polyreactivity
36 | QVQLVESGGGLVQAGGSLRLSCAASGRTFLENAMGWYRQAPGKERELVAAISWRGGNTHYADSVKGRFTISRDNAKNTVYLQMNSLKPEDTAVYYCNAVNYRNKYDYWGQGTQVTVSS | high polyreactivity
37 | QVQLVESGGGLVQAGGSLRLSCAASGFTFGYYAMGWYRQAPGKERELVAAISSSGGSTYYADSVKGRFTLSRDNAKNTVYLQMNSLKPEDTAVYYCAVVVFSRVYRYFTSDYWGQGTQVTVSS | high polyreactivity
38 | QVQLVESGGGLVQAGGSLRLSCAASGSTFVYYAMGWYRQAPGKERALVASITTSAGSTYYADSVKGRFTISRDTAKNSVYLQMNSLKPEDTAVYYCNARITITYYYWGQGTQVTVSS | high polyreactivity
39 | QVQLVESGGGLVQAGGSLRLICAASGSIFPFNAMGWYRQAPGKERELVAAISSSGGSTSYADSVKGRFTISRDNAKNTVYLQMNSLKPEDTAVYYCNVRYRSAGSRYGYWGQGTQVTVSS | low polyreactivity
40 | QVQLVESGGGLVQAGGSLRLSCAACGNIFGPYAMGWYRQAPGKERELVAAISFTGVSTYYADSVKGRFTISRDNAKNTVYLQMNSLKPEDTAVYYCSYYRSSTYYYWGQGTQVTVSS | high polyreactivity
41 | QVQLVESGGGLVQAGGSLRLSCASSGRTFVSNAKGWYRQAPGKERELVAVITGIGGNTYYADSVKGRFTISRDNAKNSDYLQMNSLKPEDTAVYYCAADISLVSYYYWGQGTQVTVSS | low polyreactivity
42 | QFQLVESGGGLVQAGGSLRLSCAASGITFYRYAMGWYRQAPGKERELVASISSRGSSTYYADSVKGRFTISRDNAKNTVYLQMNSLKPEDTAVYYCAKSRGSRGFVASTYNYWGQGTQVTVSS | high polyreactivity
43 | QVQLVESGGGLVQAGGSLRLSCAASGRNFPYYAMGWYRQAPGKEMELVAAITRGVRTHYADSVKGRFTISRDNAKNTVYLQMNSLKPEDTAVYYCAREDWGSYSDMDSWGQGTQVTVSS | low polyreactivity

From the nanobody polyreactivity screen of Harvey et al. (2022)
